test: label from the status in PepcDB records
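Also: failed if final PepcDB status was selected cloned or expressed and not failed if soluble or beyond.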

**Q.** With “MDPSLHARPHPRRRLRCALLALACGTGAAHAATPPPYLQTQRSFEQRAADLVSRMTLEEKAAQMQNAAPAIPRLGVPAYDWWNEALHGVARAGGATVFPQAIGMAATFDLPLMHEVATAISDEARAKHHRFLRQHQHARYQGLTFWSPNINIFRDPRWGRGQETYGEDPFLTARMGVTFVQGLQGEGSDAPKNAQGERYRKLDATAKHFAVHSGPEADRHHFDARPSQRDLYETYLPAFEALVKDGKVDAVMGAYNRVYGESASASKFLLQDVLRQQWGFKGYVVSDCWAIVDVWKHHKIVATREQAAALAVTHGTELECGEEYSTLPAAVHQGLIDEAQIDTALQTLMTARMRLGMFDPPGQLPWSKIPASVNQSPAHDALARRTARESLVLLKNDGLLPLSRATLKRIAVIGPTADDTMALLGNYYGTPAAPVTVLQGIRAAAPNAQVLYARGADLVEGRNDPAATPLIEPHYLRPSANSPERGLRGEYFRNRDLSGKPALVRVDAQIGFTWDRGSPTDNLLARGEAGPSEAVPADNFSIRWSGQLVPPTTGTYHLEAAADDGVRLYLDGKPVIDRWSTSDRLHADGVDVQLQAGRSYDLRLDYFEGERDAAVRLAWRQPGAKPPLQEALDVARSADVVVFVGGLTGDVEGEEMKVSYPGFAGGDRTDLRLPKPQRELLEALQATGKPVVAVLTAGSALAVDWAQQHVPAILLAWYPGQRGGTAVADTLFGDANPGGRLPVTFYKESETLPAFDDYAMHGRTYRYFGGTPLYPFGHGLSYTQFAYSDLRLDRSTLTADGALTATVAVKNTGQRAGDEVVQLYLHPLKPQRERAGKELRGFQRLALQPGQQRELRFTINAKDALRIYDAQRKAYTVDPGAYEVQIGASSADIRARQRFTVTDK” as the sequence, how does the protein production read?
**A.** failed

**Q.** With “MDQEAFLRERIEKAQAQLQKLRDENRVLRARQIMWGCIEGTIDVCQLGEKDLQDLSSVIDDYLDSLKSRIEYLKKNGEPSSSLPPRVLQDLNVKEDGDIPSMDGSHHQFETNRLTTITTTADACAPNITNNP” as the sequence, how does the protein production read?
**A.** failed

**Q.** With “MDQLYQLAQAMIHNDLAVLSNPNVTLMVSGVILCFLVMENGFIPTAFLPGDTLLILTGVLIYQDVLHMGIVPLLMVATFIGTAIGYLQGYFLGHTQMYHRLLSHIDDKHQKKALYLIDKYGILTLLVARYIPFVRTIYPYIIGATGVSWSRFLVINFISSVMWITPLVGFGYVISHSKLANEYQTQFMSIIVYLPIVLLVSGIVTLIYKWLRKKKKL” as the sequence, how does the protein production read?
**A.** failed

**Q.** Which protein production does the source give for “MDQPWNANIHYDALLDAMVPLGTQCVLDVGCGDGLLAARLARRIPYVTAVDIDAPVLRRAQTRFANAPIRWLHADIMTAELPNAGFDAVVSNAALHHIEDTRTALSRLGGLVTPGGTLAVVTFVTPSLRNGLWHLTSWVACGMANRVKGKWEHSAPIKWPPPQTLHELRSHVRALLPGACIRRLLYGRVLVTWRAPVLEHHHHHH” here?
**A.** failed

**Q.** Which protein production does the source give for “MDQQSIVSILMILATFGLYIGISIYNRARATSDFYVASRGVPPFWNGMAIGGDWMSAASFIGMAGTIMILGYDGLAYIMGWTGGYLFLTFLFAPQLRKYGRYTVPEFIGDRYGSNTARLIAAIATIIISFTYIIGQLSGSGVVIGRILNIPAMYGTMIGVVVIAIYATLGGMKGITWTQVAQYIILIVAYIIPIVFMSLQLSGNPFPWLTYGNFISQLDGLDQELGLSQILQPFMESDKSQFIALMFTLMVGTAALPHVIVRFYTVTTMKAARWSGAWALIFIALLYLSAPAYAAFSRFILMTQVANQPIDQLPAWTEAWINTGLLEMADANGDGILQWEELRISNDIVVMATPEIANLGMFVIGLVAAGAMAAALSTAGGLLITISSSFAHDIYYRLMNPKASDQKRLLAGRIAIVLATIVAGVVALDPPGVITQIVAWAFGLAGGAFFPVLLLGVWWKRANAKGAIAGMLSGLAVTLVYIFLARTGTFTLFGIQDTGAGLIGVPVNLFVTIVVSLMTAAPSQKLQDEVVDLRYPEQMTYKDGEVWMDESSGK” here?
**A.** failed

**Q.** For “MDRECERDPYYDDLKVAKRAIEQMEMVAMMEGIPKFCPCGGSIVDTRKDEKRYYQCEKFKDDRTDLMHIRKLWDKAMEEEVSSLRESVDYNRKKVLSHEYLIEEMQKELKAHRAEIVNVSKVVFRNPMAPKK”, which protein production is on record?
**A.** failed

**Q.** Which protein production does the source give for “MDRIKSWEYDDVYNKFAIKDLDKSSFKRGSHIPIKVRKVFECEDIKYGDKKKITLIYKGEAFPAEIEGEIKGRIRMNWPKLIPKMKEVFKNEINDFEDSKELSVRVPRLKFTKETAIKYDVEMKTKYSHDVLCELERLDIDVENKTIEEINEVGEVIERVVKARKNQNKFREALFKRDGKCKICGLAHKELLIASHIKPWSKSTPEEKLNPFNGFLLCPNHDSLFDKHLISFKDNGEIIISKRLSEKEQELLSINKDIMINIEEGNKKFLKEHRDVFCKIEKAFDLEKELAISNKEIYNVELEV” here?
**A.** failed

**Q.** With “MDRLPILKLGDCLLVTIQVELHDRLALTLQDDLTTMIANTGARGVLIDISALDIVDSFIARVLGNIAAMSRVLGAETMVVGMQPAVAITLVELGVTWQHMHTALSVERGLERLKVLIAERHTLRGHSPRGKRGGGVDGSRH” as the sequence, how does the protein production read?
**A.** failed

**Q.** Which protein production does the source give for “MDRLTEMEAFANVVDQGGFTDAAKKMGISKSAVSKHVSSLEARLGARLLNRTTRRVSPTEIGLAYYDRARRVLNDAGEADALVTSMQSAPSGLLRISVATDFGVNHLSPVLSDFLAEFPDITVNMVLNNRYVELISEGFDMAVRIGELEDSTLRARKLTETTKRMIASPKYFEKYGHPQKIDDLNEHKLLHYSSQASGNVWKLTAPSGEKRQVRTAGWLSVNDGQSLLNAAISGLGIAYLPCYLFAEAMEQGLVEDAMPSLPDEVQGIYAVYPPGRFTQPKVRAFIDFLVHSFADKGPMNW” here?
**A.** not failed

**Q.** With “MDSEAQQISLLIGKEDRYGRVEVNLMEVEPMNAEDFNAKLDVSFKAWKDQGKKGIWIKLPCELSSLVDIAMKKGFTYHHAENEYAVLSSWISDLPNTIPANASHRIGIGALVLNKNREVLAVQEIDGVFKDTGLWKLPTGVIQENRENFRYMANICLKRSQEKEYLGFSNVLTKNSTGKESYLYCSTDHAYFLKGKPDHSSTSLFTTLLRKCFSI” as the sequence, how does the protein production read?
**A.** failed

**Q.** Which protein production does the source give for “MDSKDESSHVWPTSAEHEQNAAQVHFVPDTGTVAQIVYTDDQVRPPQQVVYTADGASYTSVDGPEHTLVYIHPVEAAQTLFTDPGQVAYVQQDATAQQASLPVHNQVLPSIESVDGSDPLATLQTPLGRLEAKEEEDEDEDEDTEEDEEEDGEDTDLDDWEPDPPRPFDPHDLWCEECNNAHASVCPKHGPLHPIPNRPVLTRARASLPLVLYIDRFLGGVFSKRRIPKRTQFGPVEGPLVRGSELKDCYIHLKVSLDKGDRKERDLHEDLWFELSDETLCNWMMFVRPAQNHLEQNLVAYQYGHHVYYTTIKNVEPKQELKVWYAASYAEFVNQKIHDISEEERKVLREQEKNWPCYECNRRFISSEQLQQHLNSHDEKLDVFSRTRGRGRGRGKRRFGPGRRPGRPPKFIRLEITSENGEKSDDGTQDLLHFPTKEQFDEAEPATLNGLDQPEQTTIPIPQLPQETQSSLEHEPETHTLHLQPQHEESVVPTQSTLTADDMRRAKRIRLELQNAALQHLFIRKSFRPFKCLQCGKAFREKDKLDQHLRFHGREGNCPLTCDLCNKGFISSTSLESHMKLHSDQKTYSCIFCPESFDRLDLLKDHVAIHINDGYFTCPTCKKRFPDFIQVKKHVRSFHSEKIYQCTECDKAFCRPDKLRLHMLRHSDRKDFLCSTCGKQFKRKDKLREHMQRMHNPEREAKKADRISRSKTFKPRITSTDYDSFTFKCRLCMMGFRRRGMLVNHLSKRHPDMKIEEVPELTLPIIKPNRDYFCQYCDKVYKSASKRKAHILKNHPGAELPPSIRKLRPAGPGEPDPMLSTHTQLTGTIATPPVCCPHCSKQYSSKTKMVQHIRKKHPEFAQLSNTIHTPLTTAVISATPAVLTTDSATGETVVTTDLLTQAMTELSQTLTTDYRTPQGDYQRIQYIPVSQSASGLQQPQHIQLQVVQVASATSPHQSQQSTVDVGQLHDPQPYPQHAIQVQHIQVSEPTASAPSSAQVSGQPLSPSAQQAQQGLSPSHIQGSSSTQGQALQQQQQQQQNSSVQHTYLPSAWNSFRGYSSEIQMMTLPPGQFVITDSGVATPVTTGQVKAVTSGHYVLSESQSELEEKQTSALSGGVQVEPPAHSDSLDPQTNSQQQTTQYIITTTTNGNGSSEVHITKP” here?
**A.** failed

**Q.** For “MDSLTSLTSFVRTAETLSFVQAARLLGISASAVGKNVARLEHKLGVRLFNRSTRNVSLTAEGAAFLTRCQSILEQIQEAESELTSSLSQPTGKLRISLPVIGYRLLLPALTAFSRLYPQVELDLDFSDRLVNLIDEGVDVAIRSGELADSRLIARKLGGFRFVLCASPAYLAEYGAPDSPAELAAHKCIFFRFPATGLIQPWELRGMRLTGDFRSAAVMTVNNIEAAIRLSAAGMGIAYVPDFVVREAMDEGQLQEVLPGCCIKDGHFSVLWPASRYLSPRIRCFIDFMAAAEIPLSPASAPPPLVSNNLR”, which protein production is on record?
**A.** failed

**Q.** Which protein production does the source give for “MDSSLANINQIDVPSKYLRLLRPVAWLCFLLPYAVGFGFGITPNASLQHAVLGLLSFAFWMAFSFTINALYDRDVDRLHDGRVKDLNLSMQPLVTGEISVREAWLYCIAFLALSLATAAAINEKFFLAMLGANIIGYVYSAPPRFKAWPVMDVICNALAAVLAFYAGLSIGGAEVPIAIYPAAFFLAATFYIPTAVSDYEFDKKAGLKNTPVFFGPERALKSLYPLSAITVILWAYVFLMAERIEIKVISPLIIAYTLIYTFIINSRWDGEKLNVSPNLILTPFGIISALFIAYGFAVISVLG” here?
**A.** failed

**Q.** Which protein production does the source give for “MDSSSISSLLEDLKHSDALVREQATKKLWRIWFQQKGMYGLEKIDQSQKLLDAGEITEAEVMLTQLIQEQPDFAEAWNRRAFLYYSMGEYQKSLADCQMVIQINPVHFGALHGIGLCYAALGKYAKAIKAFKRALEIQPYSLVNQKLILECTFRLSLEHHHHHH” here?
**A.** failed

**Q.** Which protein production does the source give for “MDTDFRVTGRNAAALFALTIHRGDGMVLLGMDWKNGRPPIDFVGFAIQYREPGTDFFKNVRNRIGFPGQPVPADGIRTTEAPIQKFRWVHFPFNADLPGKFLYRVTPKFMDAAGGLASGEAQEAELALMRETIPGKLNVAFTRGFVSSQAFVRNFAPDAPTIITLVPPVGDEGLDFVPTHADAERALAWMGFEARAETLDLLDRAQAAGAEVRVIAYDLNLPEVVTRLEALGPKLKIIIDDSARTDGHGRPDSPETKAAERLIASAGAANVKRQHMANLQHQKSIAVRGGGISTVLYGSTNLSWRGLYVQSNNSLAVHSEKAIDDYFTAFESYFTAKRAADFRSSASSAGWIDLGLDGVDAKVAFSPHSDANGRLDEIGADIDTAQSSVLFSLAFLGQMTRGAIGPALGRALERPEVHVMGIADAEVRAGNLGLNVLTPDNRRRVVRAAALTGNVPPPFLTEPSGLAGVDGNQRGTRMHHKFVVLDFDKPTARVYLGSYNFSNPADDENGENLVVVRDRTVATSYMIEALRMYDHYVFRVASEASDGPARPLELKRPPQPGGTPWFERDWTDPIRARDRELFARAE” here?
**A.** failed

**Q.** For “MDTDWSNLAVRLERLLERFERIIDRHDPVLPRDPAFFDGAIAFRWRRSGEQGTFEPVTHPHLPDPADLVGIDLVREDLIRNTAQFMDGYPANNVLLWGERGTGKSTCVKGMLRLFADRGLRLVEVQRDDLMSLPALIAALRSVPRRFILFCDDLSFGEGEGGYRELKALLEGSIEAKPTNILFYATSNRRHLLPERMEDNLSSEIHPEEAVSEKLSLADRFGMALGFYPFSQDVYLSIVERYAEKFALPMEREALRKEAHLWAMYRGSRSGRSARQFIDDLAGRLGVRLNDRLEHHHHHH”, which protein production is on record?
**A.** failed

**Q.** Which protein production does the source give for “MDTEADLFYRQLPKVELHAHLNGSVSFETMEKLIKRKPHLNIEHSMTAIRRGQRRTLDECFQVFKVIHQLVDSEEDILMVAKSVIQEFAADGVKYLELRSTPREVTETGLSKQRYIETVLEAIRQCKQEGVDIDVRFLVAVDRRHGPEVAMQTVKLAEDFLLSSDGTVVGLDLSGDPTVGHGKDLLAALQKAKNCGLKLALHLSEVPSQIDETELLLNLPPDRIGHGTFLHPDVGGSDSLVDKVCKQNIPIEICLTSNVKGQTVPSYDKHHFKYWYNRGHPCVLCTDDKGVFCTDLSQEYQLAASTFGLTKEAVWILSQQAIGYTFAPEPIKQRLEKTWAELKQQILQ” here?
**A.** failed

Reference: a protein production outcome set (Wang et al. 2014)
